Measured values from paper PMC4631386, “Identification and Characterization of the Interaction Site between cFLIPL and Calmodulin” (PLoS ONE, 2015).

Biological target: T1, His-tagged human calmodulin (recombinant) (human, UniProt P0DP24 1-149)
T1 construct: human calmodulin, CALM2 cDNA (OriGene SC125707) in a modified pET16b with a TEV site between the N-terminal polyhistidine tag and the protein; also called free calmodulin; recombinant calmodulin; not shown: polyhistidine, N-terminal, kept
Test: ELISA; competition: calmodulin immobilised, GST-DED1 held at its KD concentration, R4 peptide titrated; anti-GST AlexaFluor 488 detection
Conditions: both partners purified

IC50: 63 µM
B1: DED1 R4 peptide (peptide)
peptide: VRRFDLLKRILK
notes: cFLIP DED1 region 4, V62-K73, twelve amino acids; also called region 4; source: synthetic peptide (Tufts University Core Facility)
